This is an account of results in US20090258001A1.

Test [1] addresses CD3 (CD3/TCR complex) on CD4+ and CD8+ T cells of patients (human) (UniProt P07766). The experiment in a line: flow cytometry of CD4+ T cells, free CD3 sites by biotinylated TRX4; Example 3 Cohort 2, 2 hours after end of infusion.
For test [2] the target is unchanged. The experiment in a line: flow cytometry of CD4+ T cells, free CD3 sites by biotinylated TRX4; Example 3 Cohort 3, 0.3 mg.
Test [3] has the same target. The experiment in a line: flow cytometry, free sites by biotinylated TRX4; Example 4, 4-dose cohorts, after doses of 0.5 mg and higher.
Test [4] shares this target. The experiment in a line: flow cytometry of CD4+ T cells, anti-human IgG; Example 4 Cohort C, 2 hours after 1.0 mg infusion.
Test [5] shares this target. Nature of the test: flow cytometry of CD4+ T cells, free CD3 sites by biotinylated TRX4; Example 4 Cohort B, 0.3 mg.
For test [6] the target is unchanged. The experiment in a line: flow cytometry of CD4+ T cells, free CD3 sites by biotinylated TRX4; Example 3 Cohort 3, 0.5 mg, end of infusion.
Test [7] has the same target. Nature of the test: flow cytometry of CD4+ T cells, free CD3 sites by biotinylated TRX4; Example 4 Cohort C, 0.3 mg.
For test [8] the target is unchanged. The experiment in a line: flow cytometry of CD4+ T cells, free CD3 sites by biotinylated TRX4; Example 4 Cohort A, 0.3 mg.
Test [9] shares this target. The experiment in a line: flow cytometry of CD4+ T cells, free CD3 sites by biotinylated TRX4; Example 4 Cohort A, 0.1 mg.

UniProt P07766, sequence (P07766 23-207, chain 1 of 3): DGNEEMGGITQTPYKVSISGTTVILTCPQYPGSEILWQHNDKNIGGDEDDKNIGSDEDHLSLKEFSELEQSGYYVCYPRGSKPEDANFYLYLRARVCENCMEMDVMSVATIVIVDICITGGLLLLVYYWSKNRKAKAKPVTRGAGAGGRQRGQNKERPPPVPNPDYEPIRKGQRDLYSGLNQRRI
UniProt P07766, sequence (chain, as listed by the source, chain 2 of 3): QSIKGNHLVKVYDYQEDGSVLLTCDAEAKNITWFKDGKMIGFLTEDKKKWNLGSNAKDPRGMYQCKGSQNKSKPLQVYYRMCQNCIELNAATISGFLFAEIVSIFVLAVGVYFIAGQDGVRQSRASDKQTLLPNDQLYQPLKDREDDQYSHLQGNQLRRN
UniProt P07766, sequence (chain, as listed by the source, chain 3 of 3): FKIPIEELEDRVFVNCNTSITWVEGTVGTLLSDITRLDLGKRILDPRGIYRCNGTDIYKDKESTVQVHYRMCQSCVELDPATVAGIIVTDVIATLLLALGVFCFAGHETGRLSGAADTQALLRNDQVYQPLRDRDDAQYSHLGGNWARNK

In the case of TRX4 antibody, the percent saturation of CD3 was 55% in test [1]; 70% in test [2]; > 90% in test [3]; 80% in test [5]; 90% in [6]; 99% in test [7]. Besides, the values for the percent saturation of CD3 in test [8] and in test [9] were 85% and 40%, respectively. Besides, in test [4], the cell-bound TRX4 (MESF of anti-human IgG) turned out to be 600000 MESF units.
